Article PMC3025356, “Mechanism of the Ca^2+-Dependent Interaction between S100A4 and Tail Fragments of Nonmuscle Myosin Heavy Chain IIA” (Journal of Molecular Biology, 2011)

Tested on: M200 filaments
Assay type: biochemical, human
Protocol: Fig. 9 Dissociation of M200 filaments by S100A4. (a) Initially, M200 was added (i) from a concentrated stock in 0.5 M NaCl to give a final concentration of 5 μM M200 (with respect to the polypeptide chain) in 100 mM NaCl, 10 mM Hepes, and 0.1 mM Ca^2+ at pH 7.5 and 20 °C. A biphasic rise in turbidity was recorded for 200 s (continuous line). Then 10 μM S100A4 (with respect to monomer concentration) was added (ii), followed by 0.2 mM EGTA (iii) and 1 mM Ca^2+ (iv). […] (b) M200 was diluted (i) into 100 mM NaCl to form filaments as in (a), then 5 μM S100A4 was added (ii), causing a 54% drop in turbidity. A further 5 μM S100A4 (iii) caused turbidity to fall to almost zero. (c) Stopped-flow records monitoring the dissociation of 5 μM M200 filaments on jumping [NaCl] from 100 mM to 120 mM NaCl. Other components of the buffer were 20 mM Hepes, 1 mM Mg^2+, and 100 μM Ca^2+ at pH 7.5 and 20 °C. […] In the presence of 20 μM S100A4 (lower trace), the turbidity decreased by 87% with a rate constant of 0.2 s^− 1.
Absorption spectra were recorded using a Cary 50 spectrophotometer (Varian Ltd., Walton on Thames, UK). Protein concentrations were calculated from their absorbance at 280 nm, using molar coefficients of 2980 M^− 1 cm^− 1 (M200 and S100A4) and 1490 M^− 1 cm^− 1 (M111), based on their tyrosine content (two residues per chain and one residue per chain, respectively). Myosin fragments were measured in 0.5 M NaCl buffer, and care was taken to correct for the small contribution from turbidity. Protein concentrations are stated in terms of their monomeric polypeptide chain concentration. Under the conditions used for kinetic analysis, S100A4 is predominantly a dimer,[21,25] and M200 and M111 form stable coiled coils; therefore, the molar protein concentrations are half those given in all three cases. Fluorescence emission spectra were also checked, and those preparations containing a detectable shoulder at 340 nm due to contaminating tryptophan-containing proteins were subjected to further purification. F-M16^N concentrations were based on fluorescein absorbance (ɛ490 = 78,000 M^− 1 cm^− 1). […] Quin-2 concentrations were calculated from ɛ354 = 5000 M^− 1 cm^− 1 in the absence of Ca^2+.[39] Turbidity assays used to monitor M200 filament formation and solubilisation with manual mixing were carried out using a 10-mm pathlength and a 0.1-ml microcuvette (105.250-QS; Hellma, Southend on Sea, UK) at a wavelength of 300 nm. For determination of the free Ca^2+ concentration, Fura-2 fluorescence excitation spectra were measured in the same cuvette using the 2-mm path for excitation to minimise inner filter effects.

S100A4: recombinant S100A4 expressed in E. coli BL21(DE3)
S100A4 monomer excess per M200 chain required for full solubilisation: 2 -fold molar excess | drop in turbidity (5 μM S100A4, M200 filaments, 100 mM NaCl): 54% | effect of excess EGTA on solubilisation (excess EGTA): reversed the process, allowing M200 filaments to reform | turbidity after further S100A4 (further 5 μM S100A4 (10 μM total)): almost zero | S100A4 monomer required to solubilise 1 mol of M200 (per M200 polypeptide chain): 2 mol of S100A4 monomer
